Laboratory results reported in US20200405868A1, “GEL-FORMING POLYPEPTIDES” (priority 2018, published 2020).
The star is where a group is joined. Palmitoyl = CCCCCCCCCCCCCCCC(=O)*

Legend:
[1] = molecular target: FITC-labled GnRH molecule (a peptide) (UniProt P01148); assay: Centricon filter release assay: FITC-GnRH that passed into the lower chamber with carrier at 1 mg/10 ml (control without carrier 72.50); a lower reading means more retention with the carrier
[2] = molecular target: FITC-labled GnRH molecule (a peptide) (UniProt P01148); assay: Centricon filter release assay: FITC-GnRH that passed into the lower chamber with carrier at 1 mg/100 ml (control without carrier 72.50)

Fluorescent Reading (average of duplicates) [1]: 9
Fluorescent Reading (average of duplicates) [2]: 58.4
B1: SEQ ID NO:119, Pal-SSPHSY-NH2, gel-forming peptide (peptide)
peptide: Palmitoyl-SSPHSY-NH2
SMILES: CCCCCCCCCCCCCCCC(=O)N[C@@H](CO)C(=O)N[C@@H](CO)C(=O)N1CCC[C@H]1C(=O)N[C@@H](Cc1c[nH]cn1)C(=O)N[C@@H](CO)C(=O)N[C@@H](Cc1ccc(O)cc1)C(N)=O
